# Test results reported in EP4796128A1, “ANTI-C-MET ANTIBODY-DRUG CONJUGATE COMPRISING CAMPTOTHECIN DERIVATIVE” (Celltrion, Inc., priority 2023, dated 2025).
# Like-named read-outs stand apart in the source and are kept apart here. Non-standard residues stand in square brackets, D forms with d. Residues, ends and D or L forms follow the SMILES beside them. *: point of attachment. Dolaproine = CO[C@@H]([C@@H]1CCCN1)[C@@H](C)C(=O)O; Dil = CC[C@H](C)[C@H](NC)[C@@H](CC(=O)O)OC; X1 = C[C@@H](N*)[C@@H](O)c1ccccc1; NMeV = CN[C@H](C(=O)O)C(C)C
# Key:
# NCI-H1573 = assay: In-vitro cell viability assay (CellTiter-Glo); format: cell-based; conditions: Homo sapiens
# T47D = assay: cells; format: cell-based; conditions: Homo sapiens, 144 h
# NCI-H1975 = assay: In-vitro cell viability assay (CellTiter-Glo); format: cell-based; conditions: Homo sapiens
# SNU-5 = assay: In-vitro cell viability assay (CellTiter-Glo); format: cell-based; conditions: Homo sapiens
# HT29 = assay: In-vitro cell viability assay (CellTiter-Glo); format: cell-based; conditions: Homo sapiens, HT-29, 144 h
# [1] = tested on: NCI-H441 human lung cancer xenograft; assay: NCI-H441 human lung cancer xenograft model; format: in vivo, BALB/c nude mice; conditions: 3 mg/kg i.v. QW × 2 weeks
# Method: NCI-H441 tumor cells (ATCC, Catalog No. HTB-174) were maintained in vitro in RPMI 1640 medium supplemented with 10% FBS and 1% antibiotic-antimycotic at 37°C and 5% CO2 in air. Tumor cells NCI-H441 were routinely passaged twice a week by treatment with trypsin-EDTA. The cells with exponential growth were harvested and counted for tumor inoculation.
# Mice were randomly assigned to groups of 10 each, and tumor cells were inoculated into the mice according to the experimental conditions shown in Table 19 below. Specifically, NCI-H441 tumor cells (5 × 10^6 cells/mouse) were subcutaneously inoculated into the right flank of each mouse together with 0.2 mL of PBS containing Matrigel (1:1). Treatment was started on day 14 after inoculation, when the mean tumor volume reached 180 mm^3, and the treatment start date was set as day 0. This experiment was performed for 35 days.
# Statistical analysis was performed on the data obtained 35 days after the start of the experiment to determine differences in tumor volume and tumor weight between groups. […] All data were analyzed using SPSS 29.0. p < 0.05 was considered statistically significant.
# recombinant human c-Met [2] = molecular target: T1, recombinant human c-Met (human, UniProt P08581 25-932); assay: ELISA on recombinant human c-Met
# T1 construct: Recombinant protein used in ELISA and BLI; also called human c-MET protein; human-derived c-Met protein
# [3] = molecular target: T2, monkey c-Met (cynomolgus c-Met) (monkey (cynomolgus), UniProt A0A2K5UM36 25-932); assay: ELISA on monkey (cynomolgus) c-Met
# T2 construct: Recombinant protein used in ELISA and BLI; also called monkey-derived c-MET protein; recombinant monkey c-Met
# c-Met derived from mice = molecular target: T3, c-Met derived from mice (mice, UniProt P16056 25-931, limits assumed); assay: ELISA, cross-reactivity test with diluted M01
# T3 construct: Antigen of the cross-reactivity ELISA; also called mouse c-Met
# c-Met derived from rats = molecular target: T4, c-Met derived from rats (rats, UniProt P97523 25-935, limits assumed); assay: ELISA, cross-reactivity test with diluted M01
# T4 construct: Antigen of the cross-reactivity ELISA; also called rat c-Met
# c-Met derived from dogs = molecular target: T5, c-Met derived from dogs (dogs, UniProt Q75ZY9 25-935, limits assumed); assay: ELISA, cross-reactivity test with diluted M01
# T5 construct: Antigen of the cross-reactivity ELISA; also called dog c-Met
# [4] = molecular target: T2, monkey c-Met (cynomolgus c-Met); assay: BLI, antibody as loading sample, monkey c-Met
# recombinant human c-Met [5] = molecular target: T1, recombinant human c-Met; assay: BLI, antibody as loading sample, human c-Met
# T1 sequence (P08581 25-932 limits assumed): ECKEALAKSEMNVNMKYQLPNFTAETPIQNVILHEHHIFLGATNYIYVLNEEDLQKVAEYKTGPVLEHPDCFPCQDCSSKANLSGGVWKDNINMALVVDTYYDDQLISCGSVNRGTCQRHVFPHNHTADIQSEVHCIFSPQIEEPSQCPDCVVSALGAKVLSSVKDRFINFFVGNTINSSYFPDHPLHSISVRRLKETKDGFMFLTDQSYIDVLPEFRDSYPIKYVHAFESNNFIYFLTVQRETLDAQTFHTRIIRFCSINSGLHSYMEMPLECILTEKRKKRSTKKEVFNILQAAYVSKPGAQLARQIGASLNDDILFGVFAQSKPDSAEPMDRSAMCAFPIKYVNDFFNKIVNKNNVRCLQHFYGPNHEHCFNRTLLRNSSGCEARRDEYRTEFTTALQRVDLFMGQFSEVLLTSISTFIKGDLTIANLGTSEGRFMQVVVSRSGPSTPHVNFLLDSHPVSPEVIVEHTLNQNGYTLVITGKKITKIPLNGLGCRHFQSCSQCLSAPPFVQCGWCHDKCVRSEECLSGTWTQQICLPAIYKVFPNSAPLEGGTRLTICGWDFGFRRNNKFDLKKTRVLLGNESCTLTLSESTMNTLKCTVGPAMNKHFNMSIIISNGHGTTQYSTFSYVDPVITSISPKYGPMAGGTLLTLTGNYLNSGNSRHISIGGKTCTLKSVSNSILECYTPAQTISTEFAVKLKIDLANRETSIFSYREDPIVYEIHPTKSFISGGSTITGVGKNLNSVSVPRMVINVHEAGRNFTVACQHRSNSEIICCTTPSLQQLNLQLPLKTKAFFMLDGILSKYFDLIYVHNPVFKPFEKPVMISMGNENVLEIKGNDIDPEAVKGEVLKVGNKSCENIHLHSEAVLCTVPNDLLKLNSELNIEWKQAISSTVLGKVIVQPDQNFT
# T2 sequence (A0A2K5UM36 entry or part of it limits assumed, form in doubt): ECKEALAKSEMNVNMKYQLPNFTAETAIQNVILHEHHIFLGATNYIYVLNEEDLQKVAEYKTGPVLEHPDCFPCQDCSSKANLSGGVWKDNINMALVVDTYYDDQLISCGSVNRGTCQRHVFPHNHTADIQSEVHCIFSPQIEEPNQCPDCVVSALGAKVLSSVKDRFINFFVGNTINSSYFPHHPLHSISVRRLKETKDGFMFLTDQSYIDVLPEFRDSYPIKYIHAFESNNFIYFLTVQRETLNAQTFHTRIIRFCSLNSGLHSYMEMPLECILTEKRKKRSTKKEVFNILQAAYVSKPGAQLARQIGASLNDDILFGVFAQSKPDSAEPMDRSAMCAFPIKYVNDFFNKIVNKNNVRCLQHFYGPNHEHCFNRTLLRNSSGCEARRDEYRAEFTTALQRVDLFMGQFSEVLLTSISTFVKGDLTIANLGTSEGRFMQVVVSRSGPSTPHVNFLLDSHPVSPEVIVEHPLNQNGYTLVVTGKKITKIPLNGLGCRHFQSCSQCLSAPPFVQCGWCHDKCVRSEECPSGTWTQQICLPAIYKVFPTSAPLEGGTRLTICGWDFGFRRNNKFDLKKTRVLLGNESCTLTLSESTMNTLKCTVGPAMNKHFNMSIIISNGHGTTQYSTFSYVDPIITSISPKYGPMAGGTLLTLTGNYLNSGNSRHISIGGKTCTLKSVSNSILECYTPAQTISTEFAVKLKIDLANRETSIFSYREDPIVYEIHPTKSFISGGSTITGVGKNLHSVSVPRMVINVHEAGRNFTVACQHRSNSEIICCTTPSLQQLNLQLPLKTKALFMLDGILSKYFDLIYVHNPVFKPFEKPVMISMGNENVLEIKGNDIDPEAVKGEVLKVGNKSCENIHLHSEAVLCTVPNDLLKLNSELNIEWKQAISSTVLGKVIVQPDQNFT
# T5 sequence (Q75ZY9 25-935 limits assumed): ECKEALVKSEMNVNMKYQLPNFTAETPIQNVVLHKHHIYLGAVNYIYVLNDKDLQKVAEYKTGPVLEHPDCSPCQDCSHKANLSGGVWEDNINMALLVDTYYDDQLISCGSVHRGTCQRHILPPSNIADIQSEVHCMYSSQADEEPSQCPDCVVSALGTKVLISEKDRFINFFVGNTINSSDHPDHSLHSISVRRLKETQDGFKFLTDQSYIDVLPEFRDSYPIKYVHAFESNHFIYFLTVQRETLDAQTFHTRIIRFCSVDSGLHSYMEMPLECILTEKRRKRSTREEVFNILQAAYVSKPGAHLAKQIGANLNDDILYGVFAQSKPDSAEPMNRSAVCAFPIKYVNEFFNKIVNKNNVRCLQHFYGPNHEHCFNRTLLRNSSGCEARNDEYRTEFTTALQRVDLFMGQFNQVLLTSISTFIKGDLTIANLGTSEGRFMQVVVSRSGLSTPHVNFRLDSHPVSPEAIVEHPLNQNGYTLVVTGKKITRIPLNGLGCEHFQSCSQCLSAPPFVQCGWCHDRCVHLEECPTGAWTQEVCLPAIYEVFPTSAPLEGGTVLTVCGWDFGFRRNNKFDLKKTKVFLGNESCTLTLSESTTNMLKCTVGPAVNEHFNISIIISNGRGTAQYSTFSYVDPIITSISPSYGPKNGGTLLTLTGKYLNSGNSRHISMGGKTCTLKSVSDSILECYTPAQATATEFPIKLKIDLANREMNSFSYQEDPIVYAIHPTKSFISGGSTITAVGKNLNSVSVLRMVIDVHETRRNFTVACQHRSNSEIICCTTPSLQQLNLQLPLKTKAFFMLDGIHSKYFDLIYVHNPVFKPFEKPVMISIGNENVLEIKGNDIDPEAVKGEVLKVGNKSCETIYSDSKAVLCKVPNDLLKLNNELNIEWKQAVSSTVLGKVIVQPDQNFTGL
# T3 sequence (P16056 25-931 limits assumed): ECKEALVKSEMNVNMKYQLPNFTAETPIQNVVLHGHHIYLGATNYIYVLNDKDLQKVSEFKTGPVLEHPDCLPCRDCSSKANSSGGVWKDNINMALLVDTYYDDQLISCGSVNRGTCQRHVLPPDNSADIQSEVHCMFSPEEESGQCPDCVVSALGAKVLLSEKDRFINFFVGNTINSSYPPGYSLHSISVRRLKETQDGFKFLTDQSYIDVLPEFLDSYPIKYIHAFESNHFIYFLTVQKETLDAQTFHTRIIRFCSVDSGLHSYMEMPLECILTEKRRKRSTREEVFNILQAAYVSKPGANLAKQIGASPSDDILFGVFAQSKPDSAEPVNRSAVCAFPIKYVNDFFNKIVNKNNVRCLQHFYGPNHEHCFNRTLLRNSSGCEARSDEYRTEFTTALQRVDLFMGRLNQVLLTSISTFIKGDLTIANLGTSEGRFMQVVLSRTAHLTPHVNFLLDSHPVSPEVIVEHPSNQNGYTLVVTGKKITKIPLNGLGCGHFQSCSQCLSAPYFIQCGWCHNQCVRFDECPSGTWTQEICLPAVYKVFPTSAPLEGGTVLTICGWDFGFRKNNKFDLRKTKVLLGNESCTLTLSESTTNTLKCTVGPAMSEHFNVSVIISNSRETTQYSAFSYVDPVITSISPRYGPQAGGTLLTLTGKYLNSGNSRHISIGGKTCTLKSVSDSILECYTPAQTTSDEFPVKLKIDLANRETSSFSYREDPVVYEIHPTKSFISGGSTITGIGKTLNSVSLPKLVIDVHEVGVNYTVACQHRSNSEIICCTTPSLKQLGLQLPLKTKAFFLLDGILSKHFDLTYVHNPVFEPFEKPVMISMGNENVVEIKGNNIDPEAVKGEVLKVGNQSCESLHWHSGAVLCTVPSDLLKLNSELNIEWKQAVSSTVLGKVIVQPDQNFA
# T4 sequence (P97523 25-935 limits assumed): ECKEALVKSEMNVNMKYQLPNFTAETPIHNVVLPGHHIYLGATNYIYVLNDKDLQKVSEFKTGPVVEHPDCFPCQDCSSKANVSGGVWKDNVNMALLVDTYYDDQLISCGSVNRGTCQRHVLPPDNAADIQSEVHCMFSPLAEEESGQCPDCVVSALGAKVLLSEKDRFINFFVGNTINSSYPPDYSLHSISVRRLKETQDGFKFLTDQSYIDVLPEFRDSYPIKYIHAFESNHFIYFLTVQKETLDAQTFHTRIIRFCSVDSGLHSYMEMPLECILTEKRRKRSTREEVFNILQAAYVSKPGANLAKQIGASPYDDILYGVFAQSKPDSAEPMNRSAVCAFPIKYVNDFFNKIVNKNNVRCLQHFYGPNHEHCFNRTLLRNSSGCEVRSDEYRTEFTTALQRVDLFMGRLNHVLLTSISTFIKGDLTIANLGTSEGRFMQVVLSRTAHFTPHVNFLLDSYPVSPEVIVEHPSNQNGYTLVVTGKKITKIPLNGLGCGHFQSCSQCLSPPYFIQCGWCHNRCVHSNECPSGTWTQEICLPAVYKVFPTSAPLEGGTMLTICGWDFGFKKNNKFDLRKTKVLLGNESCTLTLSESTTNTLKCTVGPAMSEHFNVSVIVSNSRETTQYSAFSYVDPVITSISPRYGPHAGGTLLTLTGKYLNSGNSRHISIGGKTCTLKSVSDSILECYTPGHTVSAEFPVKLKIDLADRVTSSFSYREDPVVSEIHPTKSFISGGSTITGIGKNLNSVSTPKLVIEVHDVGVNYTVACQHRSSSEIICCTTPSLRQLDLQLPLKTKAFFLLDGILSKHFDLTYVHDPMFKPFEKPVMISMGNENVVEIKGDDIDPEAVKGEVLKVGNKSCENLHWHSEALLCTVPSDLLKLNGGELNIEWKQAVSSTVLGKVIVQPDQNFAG
molecule,measurement,setting,value
"CC[C@H](C)[C@@H]([C@@H](CC(=O)N1CCC[C@H]1[C@H](OC)[C@@H](C)C(=O)N[C@H](C)[C@@H](O)c1ccccc1)OC)N(C)C(=O)[C@@H](NC(=O)[C@@H](NC)C(C)C)C(C)C [MMAE, monomethyl auristatin E, reference compound] (H-[NMeV]V[Dil][Dolaproine]-X1)",IC50,"NCI-H1573; 144 h, NCI-H1573, 6 days incubation, read-out: IC50",0.42 nM
same,IC50,"T47D; 6 days incubation, read-out: IC50",0.51 nM
same,IC50,"NCI-H1975; 144 h, NCI-H1975, 6 days incubation, read-out: IC50",0.3 nM
same,IC50,"SNU-5; 144 h, SNU-5, 6 days incubation, read-out: IC50",0.42 nM
same,IC50,"HT29; HT29, 6 days incubation, read-out: IC50",0.14 nM
CC[C@@]1(O)C(=O)OCc2c1cc1n(c2=O)Cc2c-1nc1cc3c(c4c1c2[C@@H](NC(=O)[C@@H](C)O)CC4)OCO3 [PBX-7016],IC50,"NCI-H1573; NCI-H1573, 144 h",2.55 nM
same,IC50,T47D,0.45 nM
same,IC50,"NCI-H1975; NCI-H1975, 144 h",9.8 nM
same,IC50,"SNU-5; SNU-5, 144 h",5.21 nM
same,IC50,HT29,3.8 nM
"P23-MMAE: isotype ADC: anti-influenza A antibody (Navivumab, P23) with monomethyl auristatin E payload; DAR 3.1 (conjugate, chains of the INN, looked up, MMAE payload, DAR 3.1) VH: QVQLVQSGAEVKKPGASVKVSCKTSGYSFSTYGVSWVRQAPGQGPEWVGWISAYTGITDYAQKFQGRVTLTTDATTATAFLDLRSLRPDDTATYFCARDKVQGRVEVGSGGRHDYWGQGTLVIVSS VL: EVVLTQSPGTLALPPGERATLSCRASHRVGSTYIAWYQQKSGQAPRRLIYGASNRATDIPDRFSGSGSGTDFTLTIRRLEPEDSAVYYCQQFSVSPWTFGQGTRVEIK",Tumor Volume,"[1]; Day 0, mean ± SEM",180 ± 13 mm^3
same,Tumor Volume,"[1]; Day 4, mean ± SEM",208 ± 19 mm^3
same,Tumor Volume,"[1]; Day 7, mean ± SEM",244 ± 26 mm^3
same,Tumor Volume,"[1]; Day 11, mean ± SEM",283 ± 36 mm^3
same,Tumor Volume,"[1]; Day 14, mean ± SEM",287 ± 39 mm^3
same,Tumor Volume,"[1]; Day 18, mean ± SEM",358 ± 66 mm^3
same,Tumor Volume,"[1]; Day 21, mean ± SEM",396 ± 71 mm^3
same,Tumor Volume,"[1]; Day 25, mean ± SEM",563 ± 93 mm^3
same,Tumor Volume,"[1]; Day 28, mean ± SEM",708 ± 119 mm^3
same,Tumor Volume,"[1]; Day 32, mean ± SEM",977 ± 193 mm^3
same,TGI,[1]; Day 35,26.27%
same,Tumor Weight on Day 35,[1]; Day 35,1.342 ± 0.247 g
same,T/C,"[1]; Day 35, tumor volume vs P23 isotype mAb group",76.70%
same,T/Cweight,"[1]; Day 35, tumor weight vs P23 isotype mAb group",80.39%
"anti-c-Met antibody (M01) (antibody, human IgG1, kappa, V domains shown, Naked antibody; also called M01 antibody; M01 (Anti-cMet mAb)) VH: QVQLVQSGAEVKKPGASVKVSCKASGYIFTAYTMHWVRQAPGQGLEWMGWIKPNNGLANYAQKFQGRVTMTRDTSISTAYMELSRLRSDDTAVYYCARSEITTEFDYWGQGTLVTVSS VL: DIVMTQSPDSLAVSLGERATINCKSSESVDSYANSFLHWYQQKPGQPPKLLIYRASTRESGVPDRFSGSGSGTDFTLTISSLQAEDVAVYYCQQSKEDPLTFGGGTKVEIKR",EC50,recombinant human c-Met [2],0.14 nM
same,EC50,[3],0.14 nM
same,binding result,c-Met derived from mice,no binding
same,binding result,c-Met derived from rats,no binding
same,binding result,c-Met derived from dogs,no binding
same,Kd,[4],0.707 nM
same,koff,[4],5.69e-05 s⁻¹
same,kon,[4],80500 M⁻¹ s⁻¹
same,Kd,recombinant human c-Met [5],0.605 nM
same,koff,recombinant human c-Met [5],4.07e-05 s⁻¹
same,kon,recombinant human c-Met [5],67400 M⁻¹ s⁻¹
